This is an account of results in publication PMC12654924.

For test [1], the target named is hemagglutinin of the Asiatic toad influenza-like virus, ectodomain (Asiatic toad influenza-like virus). The experiment in a line: cryo-EM structure.
Test [2] concerns the target hemagglutinin of the spiny eel influenza-like virus, ectodomain (spiny eel influenza-like virus). Description: cryo-EM structure.

What is called stoichiometry N is the number of molecules, sites or subunits per partner or assembly.

The substance “hemagglutinin of the Asiatic toad influenza-like virus, ectodomain (domain or fragment)” registered a stoichiometry N in test [1] of 3.
“hemagglutinin of the spiny eel influenza-like virus, ectodomain (domain or fragment)” returned a stoichiometry N in test [2] of 3.
